Measured values as given in patent publication US20170101454A1 (Novo Nordisk, published 2017).
Starred links: 1 amine or outer side, 2 acyl side, 3 side chain; linkers in the order of their positions; H or OH if unused. Non-standard residues stand in square brackets, D forms with d. Groups on a side chain read outwards from the residue. No end group written: not given here. *: point of attachment. C18 diacid = O=C(O)CCCCCCCCCCCCCCCCC(=O)*; γGlu = O=C(O)[C@H](CCC(=O)[*:2])N[*:1]; AEEA = NCCOCCOCC(=O)O; Aib = CC(C)(N)C(=O)O

Key:
[1] = target: T1, human GLP-1 receptor (human, UniProt P43220 24-463); assay: cell-based or functional assay
[2] = target: T2, human glucagon receptor (human, UniProt P47871 26-477); assay: cell-based or functional assay
T2 sequence (P47871 26-477): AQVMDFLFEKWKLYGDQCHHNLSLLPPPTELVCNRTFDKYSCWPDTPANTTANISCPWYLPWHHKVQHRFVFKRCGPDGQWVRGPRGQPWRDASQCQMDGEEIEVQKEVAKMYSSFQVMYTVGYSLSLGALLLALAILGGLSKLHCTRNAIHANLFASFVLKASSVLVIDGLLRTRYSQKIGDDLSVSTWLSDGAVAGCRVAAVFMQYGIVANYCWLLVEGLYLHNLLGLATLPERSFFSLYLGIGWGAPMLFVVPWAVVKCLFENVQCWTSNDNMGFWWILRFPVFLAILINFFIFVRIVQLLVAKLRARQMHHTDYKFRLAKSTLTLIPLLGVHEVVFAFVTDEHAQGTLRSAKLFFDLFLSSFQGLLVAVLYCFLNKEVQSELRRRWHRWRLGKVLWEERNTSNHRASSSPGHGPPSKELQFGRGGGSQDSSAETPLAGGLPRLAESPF

[3] = target: T1, human GLP-1 receptor; assay: displacement of [125I]-GLP-1-(7-36)NH2 from BHK membranes with human GLP-1R, SPA, no serum albumin
[4] = target: T2, human glucagon receptor; assay: displacement of [125I]-glucagon from BHK membranes with human glucagon receptor, SPA, no serum albumin

Row | GLP-1R EC50 (pM) [Assay (I)(a)], CRE luciferase reporter, BHK cells [1] [pM] | GlucagonR EC50 (pM), [Assay (I)(b)], CRE luciferase reporter, BHK cells [2] [pM] | IC50 [3] [nM] | IC50 [4] [nM] | Binder
1 | 3 | 36 | 0.2 | 8.6 | H[Aib]QGTFTSDLSKYLDARRAREFVQWLISK([γGlu-γGlu-AEEA-AEEA-γGlu-C18 diacid])-NH2 (N-terminus assumed; SMILES CC[C@H](C)[C@H](NC(=O)[C@H](CC(C)C)NC(=O)[C@H](Cc1c[nH]c2ccccc12)NC(=O)[C@H](CCC(N)=O)NC(=O)[C@@H](NC(=O)[C@H](Cc1ccccc1)NC(=O)[C@H](CCC(=O)O)NC(=O)[C@H](CCCNC(=N)N)NC(=O)[C@H](C)NC(=O)[C@H](CCCNC(=N)N)NC(=O)[C@H](CCCNC(=N)N)NC(=O)[C@H](C)NC(=O)[C@H](CC(=O)O)NC(=O)[C@H](CC(C)C)NC(=O)[C@H](Cc1ccc(O)cc1)NC(=O)[C@H](CCCCN)NC(=O)[C@H](CO)NC(=O)[C@H](CC(C)C)NC(=O)[C@H](CC(=O)O)NC(=O)[C@H](CO)NC(=O)[C@@H](NC(=O)[C@H](Cc1ccccc1)NC(=O)[C@@H](NC(=O)CNC(=O)[C@H](CCC(N)=O)NC(=O)C(C)(C)NC(=O)[C@@H](N)Cc1c[nH]cn1)[C@@H](C)O)[C@@H](C)O)C(C)C)C(=O)N[C@@H](CO)C(=O)N[C@@H](CCCCNC(=O)CC[C@H](NC(=O)CC[C@H](NC(=O)COCCOCCNC(=O)COCCOCCNC(=O)CC[C@H](NC(=O)CCCCCCCCCCCCCCCCC(=O)O)C(=O)O)C(=O)O)C(=O)O)C(N)=O, also called Chem. 28; Chem 28)
2 | 3 | 55 | 0.4 | 14 | H[Aib]QGTFTSDLSKYLDLRRARDFVAWLINK([γGlu-γGlu-AEEA-AEEA-γGlu-C18 diacid])-NH2 (N-terminus assumed; SMILES CC[C@H](C)[C@H](NC(=O)[C@H](CC(C)C)NC(=O)[C@H](Cc1c[nH]c2ccccc12)NC(=O)[C@H](C)NC(=O)[C@@H](NC(=O)[C@H](Cc1ccccc1)NC(=O)[C@H](CC(=O)O)NC(=O)[C@H](CCCNC(=N)N)NC(=O)[C@H](C)NC(=O)[C@H](CCCNC(=N)N)NC(=O)[C@H](CCCNC(=N)N)NC(=O)[C@H](CC(C)C)NC(=O)[C@H](CC(=O)O)NC(=O)[C@H](CC(C)C)NC(=O)[C@H](Cc1ccc(O)cc1)NC(=O)[C@H](CCCCN)NC(=O)[C@H](CO)NC(=O)[C@H](CC(C)C)NC(=O)[C@H](CC(=O)O)NC(=O)[C@H](CO)NC(=O)[C@@H](NC(=O)[C@H](Cc1ccccc1)NC(=O)[C@@H](NC(=O)CNC(=O)[C@H](CCC(N)=O)NC(=O)C(C)(C)NC(=O)[C@@H](N)Cc1c[nH]cn1)[C@@H](C)O)[C@@H](C)O)C(C)C)C(=O)N[C@@H](CC(N)=O)C(=O)N[C@@H](CCCCNC(=O)CC[C@H](NC(=O)CC[C@H](NC(=O)COCCOCCNC(=O)COCCOCCNC(=O)CC[C@H](NC(=O)CCCCCCCCCCCCCCCCC(=O)O)C(=O)O)C(=O)O)C(=O)O)C(N)=O)
